From US20250052767A1 (BIOLEGEND, published 2025)

Tests used:
human CD28 [1] = molecular target: T1, human CD28 (human, UniProt P10747 19-220, On cells CD28 is a disulfide linked homodimer and a glycoprotein; one copy of the chain is given.); assay: cell-based or functional assay
human CD28 [2] = molecular target: T1, human CD28; assay: cell-based or functional assay; remark: listed apart in the source
human CD28 [3] = molecular target: T1, human CD28; assay: flow cytometry, PE-conjugated antibody on un-fixed human peripheral blood cells
Procedure: (§1) Cells were left either un-fixed or were fixed with 4% PFA for 15 minutes and washed with PBS to remove PFA. Cells were then counted and adjusted in Cell Staining Buffer and stained with exemplary anti-CD28 antibodies conjugated to PE for 30 minutes in the dark. […] Data were acquired on a BD Canto II instrument, and analyzed by FlowJo.

human CD28 [4] = molecular target: T1, human CD28; assay: flow cytometry, Ba/F3-human CD28 cells pre-incubated with 70 ug antibody, then 1 ug biotinylated recombinant CD86 (competitor) + labelled streptavidin
Procedure: After 15 minutes of incubation and wash, cells were incubated with PE-conjugated streptavidin. Data were acquired on a BD Canto II, and analyzed using FlowJo software.
This value was subtracted from 100 to get a reduction percentage.

human CD28 [5] = molecular target: T1, human CD28; assay: flow cytometry, PE-conjugated antibody on fresh human peripheral blood cells, CD3/CD28 gating
Source text: Cells were lysed with RBC lysis buffer, washed, and resuspended in Fluorofix solution (containing 1% PFA). Data were acquired on a BD Canto II instrument, and analyzed by FlowJo. […] A histogram was generated of each cell population to quantify median fluorescence intensity (MFI), and the MFI of each exemplary antibody and respective control was used to calculate the signal to noise (S:N) ratio (Table E2).

human CD28 [6] = molecular target: T1, human CD28; assay: flow cytometry, PE-conjugated antibody on 4% PFA-fixed human peripheral blood cells
Procedure: as §1

T1 sequence (P10747 19-220 limits assumed): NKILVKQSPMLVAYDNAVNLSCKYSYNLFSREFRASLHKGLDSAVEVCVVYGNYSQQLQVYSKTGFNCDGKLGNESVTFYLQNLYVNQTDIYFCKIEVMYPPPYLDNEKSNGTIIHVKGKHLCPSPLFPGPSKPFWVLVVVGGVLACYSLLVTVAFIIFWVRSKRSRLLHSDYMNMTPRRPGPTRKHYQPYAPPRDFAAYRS

Row | Binder | Division Index (with anti-CD3 UCHT1) (human CD28 [1]) | Expansion Index (with anti-CD3 UCHT1) (human CD28 [1]) | Percent Divided (CFSE T cell division, with plate-coated anti-CD3 UCHT1) (human CD28 [1]) [%] | Division Index (no anti-CD3) (human CD28 [2]) | Expansion Index (no anti-CD3) (human CD28 [2]) | Percent Divided (CFSE T cell division, no anti-CD3) (human CD28 [2]) [%] | S/N on un-fixed cells (human CD28 [3]) | % Reduction (of CD86 binding) (human CD28 [4]) [%] | MFI (of CD86 binding after antibody pre-incubation) (human CD28 [4]) | % CD28+ population (human CD28 [5]) [%] | MFI CD28+ population (human CD28 [5]) | S/N Ratio (human CD28 [5]) | S/N on fixed cells (human CD28 [6])
1 | exemplary anti-CD28 antibody AB5 (antibody, V domains shown, Mouse hybridoma monoclonal antibody; Conjugated to PE in the staining assays; also called antibody 5; clone 5) VH: EVQLQQSGPELEKPGASVKMSCKASGYSFTDYNMNWVKQSNGKSLEWIGIIDPYYGATTYNQRFKGKATLTVDKSSSTAYMQLKSLTSEDSAVYYCARFGFYGAMDYWGQGISVTVSS VL: DVVVTQTPLSLPVSFGDQVSISCRSSQSLANSFGNTYLSWYLHKPGQSPQLLIYGISNRFSGVPDRFSGSGSGTDFTLKISTIKPEDLGVYYCLQGTHQPFTFGSGTTLELK | 1.17 | 5.39 | 60.5 | 0.0082 | 1.01 | 0.64 | 94.5 | 91.9 | 668 | 64.7 | 12500 | 195 | 63.3
2 | exemplary anti-CD28 antibody AB3 (antibody, V domains shown, Mouse hybridoma monoclonal antibody; Conjugated to PE in the staining assays; also called antibody 3; clone 3) VH: KVQLQQSGAGLVKPGASVKLSCKTSGYTFSDYIINWVKQRSGQGLEWIGWFYPGSGSINYNEKFKDKATLTADKSSSTVYMDLSRLTSEDSAVYFCARREDRGGYDAFDYWGQGTTLTVSS VL: DIQMTQSPASLSVSVGETVTITCRASENIYSNLAWYQQKQGKSPQLLVYAATKLADGVPSRFSGSGSGTQYSLRINSLQSEDFGSYYCQHFWGTPWTFGGGTKLEIK | 1.08 | 5.11 | 55.7 | 0.0056 | 1.01 | 0.32 | 133 | 90.4 | 796 | 65.7 | 15600 | 260 | 101
3 | exemplary anti-CD28 antibody AB1 (antibody, V domains shown, Mouse hybridoma monoclonal antibody; also called antibody 1; clone 1) VH: QVHLQQSATELARPGASVKMSCKASGYTFTSYTMHWVKQRPGQGLEWIGYIDPGSGYSEFNHKFKDKSTLTADKSSSTAYMQLISLTSEDSAVYYCARRQDNSGYDSFDYWGQGTTLTVSS VL: DIQMTQSPASLSVSVGETVTITCRTSENIYSNLAWYQQKQGKSPQLLVYAATNLADGVSSRFSGSGSGIQYSLKINSLQSEDFGSYYCQHFWGIPWTFGGGTKLEIK | 0.8 | 4.03 | 42 | 0.0072 | 1.01 | 0.58 | 89.2 | 91.1 | 736 | 64.8 | 12600 | 212 | 61.6
4 | exemplary anti-CD28 antibody AB4 (antibody, V domains shown, Mouse hybridoma monoclonal antibody; Conjugated to PE in the staining assays; also called antibody 4; clone 4) VH: EVQLQQSGPELEKPGASVKMSCKASGYSFTDYNMNWVKQSNGKSLEWIGIIDPYYGATTYNQRFKGKATLTVDKSSSTAYMQLKSLTSEDSAVYYCARFGFYGAMDYWGQGISVTVSS VL: DIQMTQSPASLSVSVGETVTITCRASENIYSNLAWYQQKQGKSPQLLVYAATKLADGVPSRFSGSGSGTQYSLRINSLQSEDFGSYYCQHFWGTPWTFGGGTKLEIK | 1.08 | 5.07 | 53.8 | 0.0002 | 1 | 0.0091 | 75.4 | 92.1 | 657 | 64.9 | 11900 | 193 | 57.7
5 | exemplary anti-CD28 antibody AB6 (antibody, V domains shown, Mouse hybridoma monoclonal antibody; Conjugated to PE in the staining assays; also called antibody 6; clone 6) VH: KVQLQQSGAGLVKPGASVKLSCKTSGYTFSDYIINWVKQRSGQGLEWIGWFYPGSGSINYNEKFKDKATLTADKSSSTVYMDLSRLTSEDSAVYFCARREDRGGYDAFDYWGQGTTLTVSS VL: DIQMTQSPASLSVSVGETVTITCRASENIYSNLAWYQQKQGKSPQLLVYAATKLADGVPSRFSGSGSGTQYSLRINSLQSEDFGSYYCQHFWGTPWTFGGGTKLEIK | 1.32 | 6.04 | 65.8 | 0.0047 | 1.01 | 0.33 | 128 | 91.1 | 741 | 66 | 15500 | 249 | 101
6 | exemplary anti-CD28 antibody AB7 (antibody, V domains shown, Mouse hybridoma monoclonal antibody; Conjugated to PE in the staining assays; also called antibody 7; clone 7) VH: KVQLQQSGAGLVKPGASVKLSCKASGYTFSDYIINWVKQRSGQGLEWIGWFYPGSGSINYNEKFKDKATLTADKSSSTVYMDLSRLTSEDSAVYFCARREDRGGYDAFDYWGQGTTLTVSS VL: DIQMTQSPASLSVSVGETVTITCRTSENIYSNLAWYQQKQGKSPQLLVYAATKLADGVPSRFSGSGSGTQYSLRINSLQPEDFGSYYCQHFWGTPWTFGGGTKLEIK | 0.96 | 4.82 | 48 | 0.014 | 1.03 | 0.47 | 130 | 88.5 | 955 | 64.8 | 16200 | 249 | 108
7 | exemplary anti-CD28 antibody AB2 (antibody, V domains shown, Mouse hybridoma monoclonal antibody; also called antibody 2; clone 2) VH: QVQLQQPGSELMRPGASVKLSCKASGYTFTSYWMHWVKQRHGQGLEWIGNIYPGSGRTIYDEKFKSKATLTVDTSSSTAYMHLSSLTSEDSAVFYCTRSHYGSSFDAMDYWGQGTSVTVSS VL: DIQVNQSPSSLSASLGDTITITCHASQNIYVWLNWYQQKPGNIPKLLIYKASNLHTGVPSRFSGSGSGTGFTLTISSLQPEDIATYYCQQGQSYPWTFGGGTKLEIK | 0.99 | 4.56 | 44 | 1.49 | 6.13 | 65.4 | 89 | 91.4 | 714 | 64.2 | 13100 | 207 | 50.1
8 | exemplary anti-CD28 antibody AB8 (antibody, V domains shown, Mouse hybridoma monoclonal antibody; Conjugated to PE in the staining assays; also called antibody 8; clone 8) VH: EVKLVESGGGLVQPGGSLKLSCAASGFTFSSYTMSWVRQTPEKRLEWVAYISNGGGTTYYPDTVKGRFTISRDNAKNTLYLQMSSLKSEDTAVYYCARHRPYDYDVLDYWGQGTTLTVSS VL: DIVMTQSQKFMSTSVGDRVSITCKASQIVGTDVAWYQQKPGQSPKILIFSASNRYTGVPDRFTGSGSGTDFTLTISNMQSEDLADYFCHQYSRYPYTFGGGTKLEIK | 0.76 | 3.51 | 40 | 0.62 | 2.85 | 30.7 | 30.9 | 88.8 | 925 | 65 | 5210 | 83.2 | 24.6
